Laboratory results from paper doi:10.64898/2026.08.21.746223.
Read-outs that look alike come from different tables or passages of the source.

Experiments:
[1] = molecular target: PelC (P. aeruginosa PAO1, PA3062), outer membrane lipoprotein (Pseudomonas aeruginosa PAO1); assay: cryo-EM structure
[2] = molecular target: PelC (P. aeruginosa PAO1, PA3062), outer membrane lipoprotein (Pseudomonas aeruginosa PAO1); assay: cryo-EM structure; remark: listed apart in the source

Substance “PelC (P. aeruginosa PAO1, PA3062), outer membrane lipoprotein (natural protein)” has a stoichiometry N [1] of 12 and a stoichiometry N [2] of 12.
